Consider 15 molecules from patent US20230346885A1 (published 2023).

Common to all, as to experiment: binding, other
The target of one experiment is T1, SAGE1 peptide on HLA (human).
T1 peptide: VLIQQLEKA

Another experiment concerns the target T2, SLC30A8 peptide on HLA (human).
T2 peptide: ILAVDGVLSV

In experiment [1] the target is T3, SMC1B peptide on HLA (human).
T3 peptide: NIQELIHGA

The target in experiment [2] is T4, SLC45A2 peptide on HLA (human).
T4 peptide: SLYSYFQKV

Experiment [3] has as its target T5, SMC1B peptide on HLA (human).
T5 peptide: KLQKEVVSI

Experiment [4] addresses T6, SLC45A2 peptide on HLA (human).
T6 peptide: RLLGTEFQV

B1: TCR of SEQ ID NOs 547 and 548 (TCR, V domains shown)
Valpha: KQEVTQIPAALSVPEGENLVLNCSFTDSAIYNLQWFRQDPGKGLTSLLLIQSSQREQTSGRLNASLDKSSGRSTLYIAASQPGDSATYLCAVRQGYSTLTFGKGTMLLVSP
Vbeta: NAGVTQTPKFQVLKTGQSMTLQCAQDMNHNSMYWYRQDPGMGLRLIYYSASEGTTDKGEVPNGYNVSRLNKREFSLRLESAAPSQTSVYFCASSYSYPLAVGELFFGEGSRLTVL
Take B1: the binding result with SAGE1 peptide on HLA is recorded as “recognises”.

B2: TCR of SEQ ID NOs 555 and 556 (TCR, V domains shown)
Valpha: KQEVTQIPAALSVPEGENLVLNCSFTDSAIYNLQWFRQDPGKGLTSLLLIQSSQREQTSGRLNASLDKSSGRSTLYIAASQPGDSATYLCAVQTGANNLFFGTGTRLTVIP
Vbeta: NAGVTQTPKFRILKIGQSMTLQCTQDMNHNYMYWYRQDPGMGLRLIHYSVGAGITDQGEVPNGYNVSRSTTEDFPLRLLSAAPSQTSVYFCASSTYPVWGGEKLFFGSGTQLSVL
As for B2, the binding result in the experiment with SLC30A8 peptide on HLA is “recognises”.

B3: TCR of SEQ ID NOs 593 and 594 (TCR, V domains shown)
Valpha: KQEVTQIPAALSVPEGENLVLNCSFTDSAIYNLQWFRQDPGKGLTSLLLIQSSQREQTSGRLNASLDKSSGRSTLYIAASQPGDSATYLCAVRPWGYNQGGKLIFGQGTELSVKP
Vbeta: NAGVTQTPKFQVLKTGQSMTLQCAQDMNHNSMYWYRQDPGMGLRLIYYSASEGTTDKGEVPNGYNVSRSTTEDFPLRLLSAAPSQTSVYFCASSYWGDTEAFFGQGTRLTVV
B3: the binding result with SMC1B peptide on HLA [1] is given as “recognises”.

B4: TCR of SEQ ID NOs 569 and 570 (TCR, V domains shown)
Valpha: KQEVTQIPAALSVPEGENLVLNCSFTDSAIYNLQWFRQDPGKGLTSLLLIQSSQREQTSGRLNASLDKSSGRSTLYIAASQPGDSATYLCAVRDSWGKFQFGAGTQVVVTP
Vbeta: NAGVTQTPKFRVLKTGQSMTLLCAQDMNHEYMYWYRQDPGMGLRLIHYSVGEGTTAKGEVPDGYNVSRLKKQNFLLGLESAAPSQTSVYFCASSLGQGYGLAYDEQFFGPGTRLTVL
In the case of B4, the binding result with SLC45A2 peptide on HLA [2] is “recognises”.

B5: TCR of SEQ ID NOs 553 and 554 (TCR, V domains shown)
Valpha: QKEVEQNSEPLSVPEGAIASLNCTYSDRGSQSFFWYRQYSGKSPELIMSIYSNGDKEDGRFTAQLNKASQYVSLLIRDSQPSDSATYLCAVNSQGGKLMFGQGTELSVKP
Vbeta: NAGVTQTPKFRVLKTGQSMTLQCAQDMNHNYMYWYRQDPGMGLRLIHYSVGEGTTAKGEVPDGYNVSRLKKQNFLLGLESAAPSQTSVYFCASSYAPWPGPYEQYVGPGTRLTVT
As to B5, the binding result in the experiment with SLC30A8 peptide on HLA was “recognises”.

B6: TCR of SEQ ID NOs 587 and 588 (TCR, V domains shown)
Valpha: KQEVTQIPAALSVPEGENLVLNCSFTDSAIYNLQWFRQDPGKGLTSLLLIQSSQREQTSGRLNASLDKSSGRSTLYIAASQPGDSATYLCAVSPRSNDYKLSFGAGTTVTVRA
Vbeta: NAGVTQTPKFRILKIGQSMTLQCAQDMNHNYMYWYRQDPGMGLKLIYYSVGAGITDKGEVPNGYNVSRSTTEDFPLRLELAAPSQTSVYFCASSTGSSYNSPLHFGNGTRLTVT
On to B6, for which the binding result with SMC1B peptide on HLA [3] is on record as “recognises”.

B7: TCR of SEQ ID NOs 565 and 566 (TCR, V domains shown)
Valpha: KQEVTQIPAALSVPEGENLVLNCSFTDSAIYNLQWFRQDPGKGLTSLLLIQSSQREQTSGRLNASLDKSSGRSTLYIAASQPGDSATYLCAVDKAAGNKLTFGGGTRVLVKP
Vbeta: NAGVTQTPKFQVLKTGQSMTLQCAQDMNHNYMYWYRQDPGMGLRLIHYSVGAGITDQGEVPNGYNVSRSTTEDFPLRLLSAAPSQTSVYFCASKNWGTEAFFGQGTRLTVV
On to B7, for which the binding result in the experiment with SLC45A2 peptide on HLA [4] was “recognises”.

B8: TCR of SEQ ID NOs 591 and 592 (TCR, V domains shown)
Valpha: KQEVTQIPAALSVPEGENLVLNCSFTDSAIYNLQWFRQDPGKGLTSLLLIQSSQREQTSGRLNASLDKSSGRSTLYIAASQPGDSATYLCAVDQDSGYALNFGKGTSLLVTP
Vbeta: DTGVSQNPRHKITKRGQNVTFRCDPISEHNRLYWYRQTLGQGPEFLTYFQNEAQLEKSRLLSDRFSAERPKGSFSTLEIQRTEQGDSAMYLCASSLYRSYEQYFGPGTRLTVT
For the molecule B8, the binding result in the experiment with SMC1B peptide on HLA [3] was “recognises”.

B9: TCR of SEQ ID NOs 589 and 590 (TCR, V domains shown)
Valpha: QKEVEQNSGPLSVPEGAIASLNCTYSDRGSQSFFWYRQYSGKSPELIMSIYSNGDKEDGRFTAQLNKASQYVSLLIRDSQPSDSATYLCAVGGRDDKIIFGKGTRLHILP
Vbeta: NAGVTQTPKFQVLKTGQSMTLQCAQDMNHNSMYWYRQDPGMGLRLIYYSASEGTTDKGEVPNGYNVSRSTTEDFPLRLLSAAPSQTSVYFCASSYTDGVNSPLHFGNGTRLTVT
Regarding B9, the binding result with SMC1B peptide on HLA [3] is reported as “recognises”.

B10: TCR of SEQ ID NOs 571 and 572 (TCR, V domains shown)
Valpha: KQEVTQIPAALSVPEGENLVLNCSFTDSAIYNLQWFRQDPGKGLTSLLLIQSSQREQTSGRLNASLDKSSGRSTLYIAASQPGDSATYLCAALSYNTDKLIFGTGTRLQVFP
Vbeta: NAGVTQTPKFQVLKTGQSMTLQCAQDMNHNSMYWYRQDPGMGLRLIYYSASEGTTDKGEVPNGYNVSRLNKREFSLRLESAAPSQTSVYFCASRYSPYTEAFFGQGTRLTVV
As for B10, the binding result in the experiment with SLC45A2 peptide on HLA [2] was “recognises”.

B11: TCR of SEQ ID NOs 573 and 574 (TCR, V domains shown)
Valpha: KQEVTQIPAALSVPEGENLVLNCSFTDSAIYNLQWFRQDPGKGLTSLLLIQSSQREQTSGRLNASLDKSSGRSTLYIAASQPGDSATYLCAVRGYSTLTFGKGTMLLVSP
Vbeta: NAGVTQTPKFQVLKTGQSMTLQCAQDMNHEYMSWYRQDPGMGLRLIHYSVGAGITDQGEVPNGYNVSRSTTEDFPLRLLSAAPSQTSVYFCASSRGQFTEAFFGQGTRLTVV
With B11, the binding result in the experiment with SLC45A2 peptide on HLA [2] is given as “recognises”.

B12: TCR of SEQ ID NOs 551 and 552 (TCR, V domains shown)
Valpha: KQEVTQIPAALSVPEGENLVLNCSFTDSAIYNLQWFRQDPGKGLTSLLLIQSSQREQTSGRLNASLDKSSGRSTLYIAASQPGDSATYLCAVTGNQFYFGTGTSLTVIP
Vbeta: NAGVTQTPKFRVLKTGQSMTLQCAQDMNHEYMYWYRQDPGMGLRLIHYSVGAGITDQGEVPNGYNVSRSTTEDFPLRLLSAAPSQTSVYFCASSTYPVWGGEKMFFGSGTQLSVL
In the case of B12, the binding result with SLC30A8 peptide on HLA is reported as “recognises”.

B13: TCR of SEQ ID NOs 567 and 568 (TCR, V domains shown)
Valpha: KQEVTQIPAALSVPEGENLVLNCSFTDSAIYNLQWFRQDPGKGLTSLLLIQSSQREQTSGRLNASLDKSSGRSTLYIAASQPGDSATYLCAVSGGGADGLTFGKGTHLIIQP
Vbeta: NAGVTQTPKFRILKIGQSMTLQCTQDMNHNYMYWYRQDPGMGLKLIYYSVGAGITDQGEVPNGYNVSRLNKREFSLRLESAAPSQTSVYFCASSEEGWSNSPLHFGNGTRLTVT
For the molecule B13, the binding result in the experiment with SLC45A2 peptide on HLA [4] is “recognises”.

B14: TCR of SEQ ID NOs 563 and 564 (TCR, V domains shown)
Valpha: KQEVTQIPAALSVPEGENLVLNCSFTDSAIYNLQWFRQDPGKGLTSLLLIQSSQREQTSGRLNASLDKSSGRSTLYIAASQPGDSATYLCAVRPTEYGNKLVFGAGTILRVKS
Vbeta: NAGVTQTPKFRVLKTGQSMTLLCAQDMNHEYMYWYRQDPGMGLRLIHYSVGEGTTAKGEVPDGYNVSRLKKQNFLLGLESAAPSQTSVYFCASSNEGGGYTFGSGTRLTVV
For B14, the binding result with SLC45A2 peptide on HLA [4] is recorded as “recognises”.

B15: TCR of SEQ ID NOs 549 and 550 (TCR, V domains shown)
Valpha: KQEVTQIPAALSVPEGENLVLNCSFTDSAIYNLQWFRQDPGKGLTSLLLIQSSQREQTSGRLNASLDKSSGRSTLYIAASQPGDSATYLCAVSNDYKLSFGAGTTVTVRA
Vbeta: NAGVTQTPKFRVLKTGQSMTLLCAQDMNHEYMYWYRQDPGMGLRLIHYSVGEGTTAKGEVPDGYNVSRLKKQNFLLGLESAAPSQTSVYFCASSYSSRIYNEQFFGPGTRLTVL
In the case of B15, the binding result in the experiment with SAGE1 peptide on HLA is reported as “recognises”.
